Target: purified human dimeric IgA (dIgA) (human)
Test: ELISA, dIgA held on anti-IgA coated plates, detected with R/HpIgR, anti-secretory component and anti-mouse HRP

- lowest dIgA concentration tested, still detected: 31 ng/mL
Substance: chimeric rabbit/human polymeric Ig receptor R/HpIgR (rabbit domain 1, human domains 2-5) (from UniProt P01833 1-638)

— US20150330993A1
